Experimental data: publication doi:10.1101/2021.08.28.458008v1
Numbering of substitutions follows the chain as printed. In names and notes the source's numbering stands.

B1: EcGrx2 (Escherichia coli K-12) (protein)
chain: MKLYIYDHCPYCLKARMIFGLKNIPVELHVLLNDDAETPTRMVGQKQVPILQKDDSRYMPESMDIVHYVDKLDGKPLLTGKRSPAIEEWLRKVNGYANKLLLPRFAKSAFDEFSTPAARKYFVDKKEASAGNFADLLAHSDGLIKNISDDLRALDKLIVKPNAVNGELSEDDIQLFPLLRNLTLVAGINWPSRVADYRDNMAKQTQINLLSSMAI
B2: EcGrx2 (Escherichia coli K-12; C12S/C9S) (protein)
chain: B1 chain with C9S, C12S

Substrate: O=C1O[C@H]([C@@H](O)CO)C(=O)C1=O
Experiment: purified protein
Conditions: 2 mM GSH

| Protein | Km (50 mM sodium phosphate pH 7.4) | kcat (50 mM sodium phosphate pH 7.4) | Km (50 mM sodium phosphate pH 7.4, His6-tagged mutant) |
| --- | --- | --- | --- |
| B1 | 2879 ± 640.4 µM | 3.8245 s⁻¹ | – |
| B2 | – | – | 968 (±462.3) µM |
